Square brackets hold non-standard residues; d marks the D form. Ends that are not written are not given here. Tyr(3-NO2) = N[C@@H](Cc1ccc(O)c([N+](=O)[O-])c1)C(=O)O; 2Abz = Nc1ccccc1C(=O)O
Key:
Assay type in all cases: biochemical
MMP-9 = molecular target: T1, MMP-9 (Homo sapiens, UniProt P14780); assay: FRET peptide cleavage efficiency with MMP-9 (standard pH 7.5; also pH 6.5); settings: for % cleavage MMP-9 t = 15 min: t = 15 min (Table 9); for % cleavage MMP-9 t = 60 min: t = 60 min (Table 9); for % cleavage MMP-9 t = 120 min: t = 120 min (Table 9)
T1 construct: purchased SIGMA PF024

Kallikrein-3 = Kallikrein-3 (Homo sapiens, UniProt P07288); assay: FRET peptide cleavage efficiency with Kallikrein-3; settings: peptide 200 uM, Kallikrein-3 2 μg/ml, 37° C., pH 8
matriptase = molecular target: T2, matriptase (Homo sapiens, UniProt Q9Y5Y6); assay: FRET peptide cleavage efficiency with matriptase; settings: 200 uM linker, 1 ug/ml protease, 37° C., buffer B pH 9.0
T2 construct: purchased R&D Systems 3946-SEB
T2 sequence (Q9Y5Y6 615-855 limits assumed): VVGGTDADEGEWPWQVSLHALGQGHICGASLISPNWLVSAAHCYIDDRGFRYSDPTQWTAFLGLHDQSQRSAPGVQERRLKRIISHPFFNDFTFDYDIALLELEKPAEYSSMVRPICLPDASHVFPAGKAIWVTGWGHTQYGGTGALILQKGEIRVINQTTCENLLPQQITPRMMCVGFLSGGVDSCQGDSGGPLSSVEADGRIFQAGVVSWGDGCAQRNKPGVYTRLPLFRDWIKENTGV

MMP-2 = molecular target: T3, MMP-2 (Homo sapiens, UniProt P08253); assay: FRET peptide cleavage efficiency with MMP-2
T3 construct: purchased SIGMA PF023
T3 sequence (P08253 110-660): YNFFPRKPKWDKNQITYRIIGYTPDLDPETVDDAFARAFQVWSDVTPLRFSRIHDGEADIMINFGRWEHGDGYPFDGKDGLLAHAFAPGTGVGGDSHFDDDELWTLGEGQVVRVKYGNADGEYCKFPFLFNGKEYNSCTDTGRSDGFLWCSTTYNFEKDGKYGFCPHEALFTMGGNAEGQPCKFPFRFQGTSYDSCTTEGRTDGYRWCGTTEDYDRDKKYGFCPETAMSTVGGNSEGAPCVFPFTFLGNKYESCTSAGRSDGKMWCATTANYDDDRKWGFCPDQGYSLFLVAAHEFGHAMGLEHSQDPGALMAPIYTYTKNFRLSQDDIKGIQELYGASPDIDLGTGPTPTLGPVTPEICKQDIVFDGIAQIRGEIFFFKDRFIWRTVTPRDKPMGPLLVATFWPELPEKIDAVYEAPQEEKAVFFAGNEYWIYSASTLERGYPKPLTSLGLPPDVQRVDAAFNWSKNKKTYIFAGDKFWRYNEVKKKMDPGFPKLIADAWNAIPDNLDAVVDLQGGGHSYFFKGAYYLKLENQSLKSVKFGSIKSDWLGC

uPA = uPA (Homo sapiens, UniProt P00749); assay: FRET peptide cleavage efficiency with uPA; settings: 200 uM linker, 1 ug/ml protease, 37° C., buffer A pH 8.5
MMP-7 = molecular target: T4, MMP-7 (Homo sapiens, UniProt P09237); assay: FRET peptide cleavage efficiency with MMP-7 (standard pH 7.5; also pH 6.5); settings: for % cleavage MMP-7 t = 15 min: t = 15 min (Table 9); for % cleavage MMP-7 t = 60 min: t = 60 min (Table 9); for % cleavage MMP-7 t = 120 min: t = 120 min (Table 9)
T4 construct: purchased SIGMA CC1059
T4 sequence (P09237 95-267): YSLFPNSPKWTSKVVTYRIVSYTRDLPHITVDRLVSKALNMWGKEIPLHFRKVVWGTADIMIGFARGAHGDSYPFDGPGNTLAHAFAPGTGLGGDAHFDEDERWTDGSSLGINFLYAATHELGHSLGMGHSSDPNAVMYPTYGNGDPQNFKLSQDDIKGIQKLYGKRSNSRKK

[1] = t = 15 min, 200 uM linker, 1 ug/ml protease, 37° C., buffer C pH 7.5
[2] = t = 60 min, 200 uM linker, 1 ug/ml protease, 37° C., buffer C pH 7.5
[3] = t = 120 min, 200 uM linker, 1 ug/ml protease, 37° C., buffer C pH 7.5

T1 sequence (P14780 94-707): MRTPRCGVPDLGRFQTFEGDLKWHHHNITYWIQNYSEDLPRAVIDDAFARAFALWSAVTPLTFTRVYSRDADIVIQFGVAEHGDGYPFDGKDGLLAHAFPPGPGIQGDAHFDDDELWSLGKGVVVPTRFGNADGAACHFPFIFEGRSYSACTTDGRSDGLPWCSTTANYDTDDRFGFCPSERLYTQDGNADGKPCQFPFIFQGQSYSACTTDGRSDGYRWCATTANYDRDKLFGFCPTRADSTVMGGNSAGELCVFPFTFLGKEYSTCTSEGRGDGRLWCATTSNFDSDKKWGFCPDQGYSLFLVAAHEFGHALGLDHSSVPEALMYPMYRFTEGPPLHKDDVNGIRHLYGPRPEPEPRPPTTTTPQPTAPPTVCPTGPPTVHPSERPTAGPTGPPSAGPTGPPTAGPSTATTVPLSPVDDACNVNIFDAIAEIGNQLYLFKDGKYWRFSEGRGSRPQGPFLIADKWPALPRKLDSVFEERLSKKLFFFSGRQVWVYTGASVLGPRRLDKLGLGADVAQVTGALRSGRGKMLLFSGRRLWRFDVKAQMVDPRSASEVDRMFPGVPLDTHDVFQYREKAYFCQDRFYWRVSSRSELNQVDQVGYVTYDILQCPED
Sequence of Kallikrein-3 (P07288 25-261, species assumed): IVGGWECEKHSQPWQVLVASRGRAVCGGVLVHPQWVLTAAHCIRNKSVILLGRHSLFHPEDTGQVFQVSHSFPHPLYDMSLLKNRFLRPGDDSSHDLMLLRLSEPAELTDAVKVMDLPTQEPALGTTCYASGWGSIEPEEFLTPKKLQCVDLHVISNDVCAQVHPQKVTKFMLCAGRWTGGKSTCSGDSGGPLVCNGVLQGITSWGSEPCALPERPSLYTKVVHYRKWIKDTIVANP

| Substance | % cleavage MMP-9 t = 15 min (MMP-9) [%] | % cleavage MMP-9 t = 60 min (MMP-9) [%] | % cleavage MMP-9 t = 120 min (MMP-9) [%] | Kallikrein-3 t = 1 h % cleavage (Kallikrein-3) [%] | Kallikrein-3 t = 3 h % cleavage (Kallikrein-3) [%] | Kallikrein-3 t = 6 h % cleavage (Kallikrein-3) [%] | Kallikrein-3 t = 8 h % cleavage (Kallikrein-3) [%] | % cleavage Matriptase t = 15 min (matriptase) [%] | % cleavage Matriptase t = 60 min (matriptase) [%] | % cleavage Matriptase t = 120 min (matriptase) [%] | % cleavage MMP-2 t = 15 min (MMP-2; t = 15 min (Table 9)) [%] | % cleavage MMP-2 t = 15 min (MMP-2; [1]) [%] | % cleavage MMP-2 t = 60 min (MMP-2; t = 60 min (Table 9)) [%] | % cleavage MMP-2 t = 60 min (MMP-2; [2]) [%] | % cleavage MMP-2 t = 120 min (MMP-2; t = 120 min (Table 9)) [%] | % cleavage MMP-2 t = 120 min (MMP-2; [3]) [%] | % cleavage uPA t = 15 min (uPA) [%] | % cleavage uPA t = 60 min (uPA) [%] | % cleavage uPA t = 120 min (uPA) [%] | % cleavage MMP-7 t = 15 min (MMP-7) [%] | other results |
| --- | --- | --- | --- | --- | --- | --- | --- | --- | --- | --- | --- | --- | --- | --- | --- | --- | --- | --- | --- | --- | --- |
| RSSYRSL ([2Abz]RSSYRSL[Tyr(3-NO2)]-NH2) [LNK075] | 1 | 5 | 10 | 49 | 83 | 94 | 100 | 8 | 33 | 56 | 16 | 16 | 60 | 60 | 86 | 86 | 2 | 9 | 19 | 0 | % cleavage MMP-7 t = 60 min (MMP-7): 0%; % cleavage MMP-7 t = 120 min (MMP-7): 0% |
| GSGSGSGS ([2Abz]GSGSGSGS[Tyr(3-NO2)]-NH2) [LNK064] | 0 | 0 | 0 | 0 | 0 | 0 | 0 | 0 | 0 | 0 | 0 | 0 | 0 | 0 | 0 | 0 | 0 | 0 | 0 | 0 | % cleavage MMP-7 t = 60 min (MMP-7): 0%; % cleavage MMP-7 t = 120 min (MMP-7): 0% |
| SGRHSSKLQPLGYFGKL ([2Abz]SGRHSSKLQPLGYFGKL[Tyr(3-NO2)]-NH2) [LNK063] | 23 | 93 | 100 | 7 | 20 | 37 | 45 | 9 | 35 | 62 | 82 | 82 | 100 | 100 | 100 | 100 | 0 | 0 | 0 | 2 | % cleavage MMP-7 t = 60 min (MMP-7): 3%; % cleavage MMP-7 t = 120 min (MMP-7): 0% |
| HSSKLQYFGKL ([2Abz]HSSKLQYFGKL[Tyr(3-NO2)]-NH2) [LNK061] | 0 | 0 | 0 | 0 | 0 | 0 | 0 | 0 | 0 | 0 | 23 | 23 | 74 | 74 | 100 | 100 | 0 | 0 | 0 | 0 | % cleavage MMP-7 t = 60 min (MMP-7): 0%; % cleavage MMP-7 t = 120 min (MMP-7): 0% |
